According to publication PMC11808261:

Substrate: N[C@@H](CC(=O)O)C(=O)O
Assay: purified protein
Settings: 37 °C, 5 min, PBS pH 7.0 (pH of the activity assay), pyruvoyl-dependent
[1] = variant N3, I126* = C-terminal deletion from residue 126
[2] = variant Y1, I126* = C-terminal deletion from residue 126

B1: BsADC (L-aspartate-alpha-decarboxylase, panD-wt) (Bacillus subtilis subsp. subtilis str. 168) (protein)
chain 1: MYRTMMSGKLHRATVTEANLNYVG
chain 2: SITIDEDLIDAVGMLPNEKVQIVNNNNGARLETYIIPGKRGSGVICLNGAAARLVQEGDKVIIISYKMMSDQEAASHEPKVAVLNDQNKIEQMLGNEPARTIL
**Q.** Which Km does the source give for B1 here?
**A.** 3.69 ± 0.33 mM

**Q.** What about the kcat of the same protein?
**A.** 4.25 s⁻¹

**Q.** What about the kcat/Km of the same protein?
**A.** 1150 M⁻¹ s⁻¹

B2: BsADC (L-aspartate-alpha-decarboxylase, panD-wt) (Bacillus subtilis subsp. subtilis str. 168; A99E/DEL126-127/I88M/K113R/K63N/S7N) (protein)
chain 1: MYRTMMNGKLHRATVTEANLNYVG
chain 2: SITIDEDLIDAVGMLPNEKVQIVNNNNGARLETYIIPGNRGSGVICLNGAAARLVQEGDKVIIMSYKMMSDQEAESHEPKVAVLNDQNRIEQMLGNEPART
**Q.** What does the source list for B2?
**A.** Km [1]: 3.22 ± 0.15 mM; kcat [1]: 8.29 s⁻¹; kcat/Km [1]: 2570 M⁻¹ s⁻¹

B3: BsADC (L-aspartate-alpha-decarboxylase, panD-wt) (Bacillus subtilis subsp. subtilis str. 168; A99E/DEL126-127/I88M/K113R/K63N/S7Y) (protein)
chain 1: MYRTMMYGKLHRATVTEANLNYVG
chain 2: SITIDEDLIDAVGMLPNEKVQIVNNNNGARLETYIIPGNRGSGVICLNGAAARLVQEGDKVIIMSYKMMSDQEAESHEPKVAVLNDQNRIEQMLGNEPART
**Q.** B3 was tested. Which Km [2] did it give?
**A.** 3.82 ± 0.29 mM

**Q.** What about the kcat [2] of the same protein?
**A.** 7.26 s⁻¹

**Q.** And the kcat/Km [2]?
**A.** 1900 M⁻¹ s⁻¹
